From the supplement of paper PMC9942255
“And” between values parts separate entries of the source, which are not always exact repeats. Equal entries are not always repeated.

System: Bacillus subtilis DB104 (SP-AmyQ fusion secretion)
Test: AmyQ secretion efficiency, weighted average sort bin (1 = best secretion, 10 = worst) (bin number (weighted average, 1-10)); higher = lower secretion efficiency
Method in brief: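 The secretion score gives the average bin number weighted by read frequency and normalised to beads per bin, with low-abundance sequences excluded. Bins were 10 equally populated green/red fluorescence ratio fractions of occupied ~65 nL alginate beads, sorted by large-particle flow cytometry. The beads held fluorescein-starch and about 0.3 cells each of an amyE-integrated B. subtilis DB104 library fusing designed signal peptides to mature AmyQ, and they were grown about 13 h at room temperature and stained with nile red before sorting and Illumina sequencing.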

| Sequence | AmyQ secretion efficiency |
| --- | --- |
| MMKKLFHSTLIVLLFFSFFGVQPIHAAKK | 1.9 |
| MMKKLFHSTLIVLLFFSFFGVQPIHAATR | 2.55 |
| MMKKLFHSTLIVLLFFSFFGVQPIHAKKR | 2.74 |
| MMKKLFHSTLIVLLFFSFFGVQPLHAKKQ | 2.57 |
| MMKKLFHSTLIVLLFFSFFGVQPVASSASTIHAKKQ | 2.41 |
| MMKKLFHSTLIVLLFFSFFGVRKKRRKIHAKKQ | 6.23 |
| MMKKLFHSTLIVLLFFSFFGVSPIHAKKQ | 2.2 |
| MMKKLFHSTLRKLLFFSFFGVQPIHAKKQ | 7.14 |
| MMKKLFHSTLRRRRFFSFFGVQPIHAKKQ | 7.67 |
| MMKKLFHSTQGRQSFFSFFGVQPIHAKKQ | 7.5 |
| MMKKQVMLALTAAAGLGLTALHSAPAAKAAPL | 2.65 |
| MMKLLAAGIIGLLTVSIASPSFAAEK | 2.05 |
| MMKQIITATTAVVLGSTLFAGAASAQSI | 2.49 |
| MMKRSSLIMMTGLLFGLTSPAFAAEK | 3.11 |
| MMKVLMAFIICLSLILSVLAAPPSGAKAESV | 5 |
| MMLAKRVSALTPSTTLAITAKAKEL | 7.47 |
| MMLMMSVSMFLVALTMCGGLFVTPAKAVKT | 4.77 |
| MMLSVKIAGVLTVAAAAMTAKMYATAKGN | 5.4 |
| MMMLRKIIGWILLLCIIPLFAFTVIASGKEV | 5.45 |
| MMMWLIIAVSLAIAIVLFMYTKGEAKAAGM | 6.9 |
| MMQIMIFLTSFMLLAMTGQTALAKDV | 4.32 |
| MMRIRIPMTLALGAALTIAPLSFASAEEN | 2.92 |
| MMRTWNVCLTALLSVLLVAGSVPFHAEAKKP | 3.23 |
| MMSLLAAGIIGLLTVSIASPSFAAEK | 5.23 |
| MMSLLSTLLIGIMLLTFAPSAFAKQD | 1.88 |
| MMSLLVSLRVWMVFLMNWVTPDRKTAAAAVY | 5.61 |

| Sequence | AmyQ secretion efficiency |
| --- | --- |
| MMSRKILLSSALSLGMLVSAAPVLATSS | 3.37 |
| MMSSISIFITCLLITLLTMGGMIASPASAAGT | 2.44 |
| MMSTIFAFLTGLMMFGTITAASASPD | 4.92 |
| MMSTIMSFVAVAALSTTAFGAHASAKEI | 4.72 |
| MMTAIIIAIIAAVIVIAALITFNVRNASPG | 6.42 |
| MMTIWIGMLAAAVLLLMVPKVSLADAA | 5.79 |
| MMTKSKLLLSCLALSTVFVATTIANAPTH | 5.2 |
| MMTLCVMMLLFSAIASFPVSAQAKDQ | 7.11 |
| MMTMLFHSTLIVLLFFSFFGVQPIHAKKQ | 2.1 |
| MMTTIFAFLTGLMMFGTITAASASPD | 4.48 |
| MMVCMKSIVRFLVSLIIGTFVISVPFMANAQSD | 2.06 |
| MNFKKTGVSALSISALALSVSGVASAHEI | 3.9 |
| MNFKKTITTSSSVVSALSISALALSVSGVASAHEI | 4.04 |
| MNFKKTTSIVVSALSISALALSVSGVASAHEI | 3.35 |
| MNFKKTVRKRRSISALALSVSGVASAHEI | 7.55 |
| MNFKKTVVSALSISALALEEEDEDASAHEI | 6.1 |
| MNFKKTVVSALSISALALEEEGVASAHEI | 7.3 |
| MNFKKTVVSALSISALALEPSGVASAHEI | 2.95 |
| MNFKKTVVSALSISALALKKRGVASAHEI | 6.98 |
| MNFKKTVVSALSISALALRKRRKRASAHEI | 7.78 |
| MNFKKTVVSALSISALALSVSGVASAHSD | 2.93 |
| MNFKKTVVSALSISALALSVSGVASAHTI | 3.63 |
| MNFKKTVVSALSISALALSVSGVASARRK | 6.94 |
| MNFKKTVVSALSISALALSVSGVASGHEI | 4.67 |
| MNFKKTVVSALSISALALSVSGVASSHEI | 5.89 |
| MNFKKTVVSALSISALALSVSGVVSAHEI | 2.69 |

| Sequence | AmyQ secretion efficiency |
| --- | --- |
| MNFKKTVVSALSISALALTVTSISVSGVASAHEI | 3.48 |
| MNFKKTVVSALSISALALVSVSGVASAHEI | 3.04 |
| MNFKKTVVSALSISASVSGVASAHEI | 5.11 |
| MNFMFTVVSALSISALALSVSGVASAHEI | 3.15 |
| MNIKKFAKQATVLTFTTALLAGGATQAFAATE | 1.07 |
| MNIKKFAKQATVLTFTTALLAGGATQAFAKET | 3.3 |
| MNIKKFAKQATVLTFTTALLAGGATQAFAKET [wt_31] | 3.5 |
| MNIKKFAKQATVLTFTTALLAGGATQAFAKKR | 3.43 |
| MNILLILLSSALSFGMLISAVPALAAGT | 2.56 |
| MNITIMSFVAVAALSTTAFGAHASAKEI | 3.64 |
| MNKFLKSNFRFKRAAALGISLLASSNFIKASND | 3.29 |
| MNKFLKSNFRFLLAAALGISLLASSNFAKASND | 1.03 |
| MNKFLKSNFRFLLAAALGISLLASSNFCKASND | 1.73 |
| MNKFLKSNFRFLLAAALGISLLASSNFIKASND | 4.18 and 4.22 and 2.8 |
| MNKFLKSNFRFLLAAALGISLLGESNPIKASND | 1.52 |
| MNKFLKSNFRFLLAAALGISLLKRSNFIKASND | 6.59 |
| MNKFLKSNFRFLLAAALGISLLVLFVIFITFASSNFIKASND | 4.18 |
| MNKFLKSNFRFRRKRKKGISLLASSNFIKASND | 8.33 |
| MNKFLKSNFRYYTTGALGISLLASSNFIKASND | 7 |
| MNKFLKSNRFLLAAALGISLLASSNFIKASND | 4.66 |
| MNKKKKVVSALSISALALSVSGVASAHEI | 3.7 |
| MNKKYFKRRKCKRFTSALFPTFSSVTAAQG | 6.71 |
| MNKKYFVLIVCIIFTSALFPTDKKVTAAQG | 1.1 |
| MNKKYFVLIVCIIFTSALFPTFAVTVTAAQG | 1.05 |
| MNKKYFVLIVCIIFTSALFPTFSSATAAQG | 1.33 |
| MNKKYFVLIVCIIFTSALFPTFSSCTAAQG | 1.18 |

| Sequence | AmyQ secretion efficiency |
| --- | --- |
| MNKKYFVLIVCIIFTSALFPTFSSITAAQG | 1.16 |
| MNKKYFVLIVCIIFTSALFPTFSSVTAAQR | 1.45 |
| MNKKYFVLIVCIIFTSALFPTFSSVTCAQG | 1.06 |
| MNKKYFVLIVCIIFTSALFPTFSSVTHAQG | 1.15 |
| MNKKYFVLIVCIIFTSALFPTFSSVTLAQG | 2.52 |
| MNKKYFVLIVCIIFTSALFPTFSSVTRAQG | 1.05 |
| MNKKYFVLIVCIIFTSALFPTFSSVTTAQG | 1.05 |
| MNKKYFVLIVCIIFTSALFPTRRKKKRVTAAQG | 8.37 |
| MNKKYFVLIVCIIFTSALFPTRRRVTAAQG | 3.61 |
| MNKKYGVLIVCIIFTSALFPTFSSVTAAQG | 1.02 |
| MNKKYQTGQVCIIFTSALFPTFSSVTAAQG | 3.64 |
| MNKKYSSKQGCRIFTSALFPTFSSVTAAQG | 4.96 |
| MNKLKRLSMLKKKKASVFIFSSHALAAQY | 6.52 |
| MNKLKRLSMLTVMIASVFIFSASFFTSHALAAQY | 2.06 |
| MNKLKRLSMLTVMIASVFIFSSHALAADD | 4.21 |
| MNKLKRLSMLTVMIASVFIFSSHALAAQE | 1.11 |
| MNKLKRLSMLTVMIASVFIFSSHALAARR | 2.05 |
| MNKLKRLSMLTVMIASVFIFSSHALGAQY | 1.69 |
| MNKLKRLSMLTVMIASVFIFSSHALMAQY | 7.08 |
| MNKLKRLSMLTVMIASVFIFSSHALVAQY | 5.99 |
| MNKLKRLSMLTVMIASVFIFSSHCLAAQY | 2.86 |
| MNKLKRLSMLTVMIASVFIFSSHILAAQY | 3.91 |
| MNKLKRLSMLTVMIASVFIFSSHQLAAQY | 4.72 |
| MNKLKRLSMLTVMIASVFIFSSHSLAAQY | 2.4 |
| MNKLKRLSMLTVMIASVFIFSSHTLAAQY | 1.95 |
| MNKLKRLSMLTVMIASVFIFSSHVLAAQY | 2.99 |

| Sequence | AmyQ secretion efficiency |
| --- | --- |
| MNKLKRLSMLTVMIASVFIFSSSALAAQY | 2.06 |
| MNKLKRLSMLTVMIASVFIFSSSHALAAQY | 1.68 |
| MNKLKRLSMSKSRGYSVFIFSSHALAAQY | 6.58 |
| MNKPTKGFSTLALAAGSTAAAAGGAGTIHAQQP | 8.05 |
| MNKPTKLFILLALAALMFAAAAGGAGTIHAQQP | 1.87 |
| MNKPTKLFSTLALAAAAAAGGAGTIHAQQP | 1.43 |
| MNKPTKLFSTLALAAGMTAAAAGGAGTCHAQQP | 1.79 |
| MNKPTKLFSTLALAAGMTAAAAGGAGTIHAQRR | 6.62 |
| MNKPTKLFSTLALAAGMTAAAAGGAGTVHAQQP | 2.25 |
| MNKPTKLFSTLALAAGMTDEEEEEAGTIHAQQP | 7.16 |
| MNKPTKLFSTLALAAGMTEDEAGGAGTIHAQQP | 2.79 |
| MNKPTKLFSTLALAAGMTKDKTTSAGTIHAQQP | 7.85 |
| MNKPTKLFSTLALAAGMTKRRAGGAGTIHAQQP | 5.85 |
| MNKPTKLFSTLALAAGMTLIAAAAGGAGTIHAQQP | 1.83 |
| MNKPTKLFSTLALAAGMTRRKKRKAGTIHAQQP | 6.79 |
| MNKPTKLKKKKALAAGMTAAAAGGAGTIHAQQP | 8.12 |
| MNKPTKLRRKKKRAAGMTAAAAGGAGTIHAQQP | 7.88 |
| MNKPTKQRTKLALAAGMTAAAAGGAGTIHAQQP | 6.94 |
| MNKRFFGPIILAFILFAGAIAIPS | 7.33 |
| MNLFLIAPMLLSAASLAFFAMSGSAQAAAY | 5.75 |
| MNLLFNLSMLTVMIASVFIFSSHALAAQY | 2.94 |
| MNLNTILLSSALSLGMLVSAAPVLATSS | 1.5 |
